The Human Domainome abundance scans (Beltran et al. 2025)

B1: Protein maelstrom homolog, residues 3 to 71; numbered along this chain, Q96JY0 (parent)
chain: NRKASRNAYYFFVQEKIPELRRRGLPVARVADAIPYCSSDWALLREEEKEKYAEMAREWRAAQGKDPGP

Variants of: B1
Test: abundance fitness (aPCA) (normalised: wild type 0, dead -1); higher = more abundant; growth selection in yeast, the domain comes from the species named
Settings: Homo sapiens

Abundance fitness: each site, then its substitutions
L43: N 0.252 | Q 0.151 | D 0.277 | Y 0.086 | F -0.473 | G 0.064 | K -0.02 | V 0.006 | W -0.287 | S 0.094 | R 0.158 | T -0.108 | H 0.078 | P -0.477 | A 0.106 | M -0.098 | E 0.102 | C -0.176 | I -0.16
K51: R -0.378 | P -0.453
R45: N 0.108 | D -0.219 | K -0.023 | A -0.001 | I -0.431 | L -0.114 | G -0.111 | H -0.072 | E -0.003 | P 0.147 | C 0.016 | M -0.057 | Y -0.428 | F -0.502 | Q 0.027 | V -0.151 | W -0.511
W41: G -0.784 | A -0.553 | F -0.284 | K -0.622 | R -0.572 | N -0.706 | L -0.941 | V -0.682 | S -0.888 | T -0.682 | M -0.886 | E -0.813 | P -0.572 | I -0.968 | H -1.1 | Y -0.394 | Q -1.1
D40: V -0.036 | Y -0.48 | G -0.856 | N -0.007
S39: P 0.093 | V -0.164 | M 0.129 | T 0.132 | H 0.109 | G 0.13 | W 0.022 | Y 0.041 | D 0.07 | E -0.073 | F -0.016 | Q 0 | C -0.174 | L -0.137 | A -0.058
A42: N 0.157 | M -0.083 | C -0.177 | E 0.005 | W -0.236 | Y -0.101 | F -0.081 | G 0.058 | S 0 | L -0.082 | P -0.326 | I -0.234 | D 0.015 | K 0.016 | Q -0.147 | R -0.059 | H -0.03
D32: S -0.817 | L -1.05 | K -0.869 | Q -0.616 | Y -1.09 | M -0.835 | R -0.596 | T -0.257 | V -0.952 | W -1.07 | P -0.959
R60: T 0.322
E54: P -0.346 | H -0.161 | T 0.212 | N -0.125 | S 0.107 | K 0.027 | C -0.161 | Y -0.293 | V -0.068 | F -0.396 | L -0.13 | Q -0.147 | I 0.076 | D 0.133 | G -0.049 | W -0.299 | A -0.123
L44: R -0.802 | E -0.421 | T -0.227 | I -0.482 | G -0.864 | Y -1.09 | H -1 | S -0.205 | M -0.38 | F -0.443 | Q -0.168 | V -0.156 | K -0.568 | P -0.751 | D -0.553 | C -0.343 | A -0.254
P35: H 0.058 | N -0.266 | K 0.049 | F -0.862 | L -0.713 | T -0.554 | M -0.18 | G -0.224 | W -0.756 | Q -0.451 | Y -1.07 | V -0.78 | D -0.181 | E -0.289 | I -0.524 | S -0.628 | A -0.435
E48: D 0.06
K65: E -0.082 | A -0.206 | C 0.074 | F -0.117
E50: D -0.232
A56: L -0.296 | D -0.31 | I -0.539 | V -0.268 | E -0.101 | H -0.087 | K -0.671
